The labels stand for the following.
B1: Fab (Light)-Knob-CEA+Fab (Heavy)-Hole (209) (bispecific antibody, human IgG4 S228P, kappa, F234A L235A)
chain: QAVVTQESALTTSPGETVTLTCRSSTGAVTTSNYANWVQEKPDHLFTGLIGGTNKRAPGVPARFSGSLIGDKAALTITGAQTEDEAIYFCALWYSNLWVFGGGTKVEIKRTVAAPSVFIFPPSDEQLKSGTASVVCLLNNFYPREAKVQWKVDNALQSGNSQESVTEQDSKDSTYSLSSTLTLSKADYEKHKVYACEVTHQGLSSPVTKSFNRGECESKYGPPCPPCPAPEAAGGPSVFLFPPKPKDTLMISRTPEVTCVVVDVSQEDPEVQFNWYVDGVEVHNAKTKPREEQFNSTYRVVSVLTVLHQDWLNGKEYKCKVSNKGLPSSIEKTISKAKGQPREPQVYTLPPCQEEMTKNQVSLWCLVKGFYPSDIAVEWESNGQPENNYKTTPPVLDSDGSFFLYSRLTVDKSRWQEGNVFSCSVMHEALHNHYTQKSLSLSLGGGGSGGGGSEVQLVESGGGFVQAGESLTLSCTSSTLTFTPYRMAWYRQAPGKQRDLVADISSGDGRTTNYADFAKGRFTISRDNIKNTVFLRMTNLKPEDTAVYYCNTFVSFVGIARSWGQGTQVTVSS
heavy: EVKLLESGGGLVQPKGSLKLSCAASGFTFNTYAMNWVRQAPGKGLEWVARIRSKYNNYATYYADSVKDRFTISRDDSQSILYLQMNNLKTEDTAMYYCVRHGNFGNSYVSWFAYWGQGTLVTVSSASTKGPSVFPLAPCSRSTSESTAALGCLVKDYFPEPVTVSWNSGALTSGVHTFPAVLQSSGLYSLSSVVTVPSSSLGTKTYTCNVDHKPSNTKVDKRVESKYGPPCPPCPAPEAAGGPSVFLFPPKPKDTLMISRTPEVTCVVVDVSQEDPEVQFNWYVDGVEVHNAKTKPREEQFNSTYRVVSVLTVLHQDWLNGKEYKCKVSNKGLPSSIEKTISKAKGQPREPQVCTLPPSQEEMTKNQVSLSCAVKGFYPSDIAVEWESNGQPENNYKTTPPVLDSDGSFFLVSRLTVDKSRWQEGNVFSCSVMHEALHNRFTQKSLSLSL
notes: Two-chain format; human IgG4 knob-into-hole Fc
B2: Fab (Light)-Knob+Fab (Heavy)-Hole-CEA (210) (bispecific antibody, human IgG4 S228P, kappa, F234A L235A)
chain: QAVVTQESALTTSPGETVTLTCRSSTGAVTTSNYANWVQEKPDHLFTGLIGGTNKRAPGVPARFSGSLIGDKAALTITGAQTEDEAIYFCALWYSNLWVFGGGTKVEIKRTVAAPSVFIFPPSDEQLKSGTASVVCLLNNFYPREAKVQWKVDNALQSGNSQESVTEQDSKDSTYSLSSTLTLSKADYEKHKVYACEVTHQGLSSPVTKSFNRGECESKYGPPCPPCPAPEAAGGPSVFLFPPKPKDTLMISRTPEVTCVVVDVSQEDPEVQFNWYVDGVEVHNAKTKPREEQFNSTYRVVSVLTVLHQDWLNGKEYKCKVSNKGLPSSIEKTISKAKGQPREPQVYTLPPCQEEMTKNQVSLWCLVKGFYPSDIAVEWESNGQPENNYKTTPPVLDSDGSFFLYSRLTVDKSRWQEGNVFSCSVMHEALHNHYTQKSLSLSL
heavy: EVKLLESGGGLVQPKGSLKLSCAASGFTFNTYAMNWVRQAPGKGLEWVARIRSKYNNYATYYADSVKDRFTISRDDSQSILYLQMNNLKTEDTAMYYCVRHGNFGNSYVSWFAYWGQGTLVTVSSASTKGPSVFPLAPCSRSTSESTAALGCLVKDYFPEPVTVSWNSGALTSGVHTFPAVLQSSGLYSLSSVVTVPSSSLGTKTYTCNVDHKPSNTKVDKRVESKYGPPCPPCPAPEAAGGPSVFLFPPKPKDTLMISRTPEVTCVVVDVSQEDPEVQFNWYVDGVEVHNAKTKPREEQFNSTYRVVSVLTVLHQDWLNGKEYKCKVSNKGLPSSIEKTISKAKGQPREPQVCTLPPSQEEMTKNQVSLSCAVKGFYPSDIAVEWESNGQPENNYKTTPPVLDSDGSFFLVSRLTVDKSRWQEGNVFSCSVMHEALHNRFTQKSLSLSLGGGGSGGGGSEVQLVESGGGFVQAGESLTLSCTSSTLTFTPYRMAWYRQAPGKQRDLVADISSGDGRTTNYADFAKGRFTISRDNIKNTVFLRMTNLKPEDTAVYYCNTFVSFVGIARSWGQGTQVTVSS
notes: Two-chain format; human IgG4 knob-into-hole Fc; also called CEA-CD3 bispecific antibody 210
B3: 308 (TA3), configuration of FIG. 1X (bispecific antibody, IgG4)
heavy: EVQLVESGGGLVQPGGSLRLSCAASGYSFTGYTMNWVRQAPGKGLEWVALINPYKGVSTYNQKFKDRFTISVDKSKNTAYLQMNSLRAEDTAVYYCARSGYYGDSDWYFDVWGQGTLVTVSSASTKGPSVFPLAPCSRSTSESTAALGCLVKDYFPEPVTVSWNSGALTSGVHTFPAVLQSSGLYSLSSVVTVPSSSLGTKTYTCNVDHKPSNTKVDKRVESKYGPPCPPCPAPEAAGGPSVFLFPPKPKDTLMISRTPEVTCVVVDVSQEDPEVQFNWYVDGVEVHNAKTKPREEQFNSTYRVVSVLTVLHQDWLNGKEYKCKVSNKGLPSSIEKTISKAKGQPREPQVYTLPPCQEEMTKNQVSLWCLVKGFYPSDIAVEWESNGQPENNYKTTPPVLDSDGSFFLYSRLTVDKSRWQEGNVFSCSVMHEALHNHYTQKSLSLSLGGGGSGGGGSEVQLVESGGGFVQAGESLTLSCTSSTLTFTPYRMAWYRQAPGKQRDLVADISSGDGRTTNYADFAKGRFTISRDNIKNTVFLRMTNLKPEDTAVYYCNTFVSFVGIARSWGQGTQVTVSS
chain: ESKYGPPCPPCPAPEAAGGPSVFLFPPKPKDTLMISRTPEVTCVVVDVSQEDPEVQFNWYVDGVEVHNAKTKPREEQFNSTYRVVSVLTVLHQDWLNGKEYKCKVSNKGLPSSIEKTISKAKGQPREPQVCTLPPSQEEMTKNQVSLSCAVKGFYPSDIAVEWESNGQPENNYKTTPPVLDSDGSFFLVSRLTVDKSRWQEGNVFSCSVMHEALHNRFTQKSLSLSL
light: DIQMTQSPSSLSASVGDRVTITCRASQDIRNYLNWYQQKPGKAPKLLIYYTSRLESGVPSRFSGSGSGTDYTLTISSLQPEDFATYYCQQGNTLPWTFGQGTKVEIK
notes: chains put together from parts; IgG4, kappa; not shown: kappa light chain constant domain (CL)
B4: Knob-Fab+CEA-Hole (108) (bispecific antibody, human IgG4 S228P, kappa, F234A L235A)
heavy: ESKYGPPCPPCPAPEAAGGPSVFLFPPKPKDTLMISRTPEVTCVVVDVSQEDPEVQFNWYVDGVEVHNAKTKPREEQFNSTYRVVSVLTVLHQDWLNGKEYKCKVSNKGLPSSIEKTISKAKGQPREPQVYTLPPCQEEMTKNQVSLWCLVKGFYPSDIAVEWESNGQPENNYKTTPPVLDSDGSFFLYSRLTVDKSRWQEGNVFSCSVMHEALHNHYTQKSLSLSLGGGGSGGGGSEVKLLESGGGLVQPKGSLKLSCAASGFTFNTYAMNWVRQAPGKGLEWVARIRSKYNNYATYYADSVKDRFTISRDDSQSILYLQMNNLKTEDTAMYYCVRHGNFGNSYVSWFAYWGQGTLVTVSSASTKGPSVFPLAPCSRSTSESTAALGCLVKDYFPEPVTVSWNSGALTSGVHTFPAVLQSSGLYSLSSVVTVPSSSLGTKTYTCNVDHKPSNTKVDKRV
chain: EVQLVESGGGFVQAGESLTLSCTSSTLTFTPYRMAWYRQAPGKQRDLVADISSGDGRTTNYADFAKGRFTISRDNIKNTVFLRMTNLKPEDTAVYYCNTFVSFVGIARSWGQGTQVTVSSESKYGPPCPPCPAPEAAGGPSVFLFPPKPKDTLMISRTPEVTCVVVDVSQEDPEVQFNWYVDGVEVHNAKTKPREEQFNSTYRVVSVLTVLHQDWLNGKEYKCKVSNKGLPSSIEKTISKAKGQPREPQVCTLPPSQEEMTKNQVSLSCAVKGFYPSDIAVEWESNGQPENNYKTTPPVLDSDGSFFLVSRLTVDKSRWQEGNVFSCSVMHEALHNRFTQKSLSLSL
light: QAVVTQESALTTSPGETVTLTCRSSTGAVTTSNYANWVQEKPDHLFTGLIGGTNKRAPGVPARFSGSLIGDKAALTITGAQTEDEAIYFCALWYSNLWVFGGGTKVEIKRTVAAPSVFIFPPSDEQLKSGTASVVCLLNNFYPREAKVQWKVDNALQSGNSQESVTEQDSKDSTYSLSSTLTLSKADYEKHKVYACEVTHQGLSSPVTKSFNRGEC
notes: Anti-CD3 TA1 Fab + anti-CEA VHH C17 on human IgG4 knob-into-hole Fc
B5: Knob-Fab+Hole-CEA (109) (bispecific antibody, human IgG4 S228P, kappa, F234A L235A)
heavy: B4 heavy
chain: ESKYGPPCPPCPAPEAAGGPSVFLFPPKPKDTLMISRTPEVTCVVVDVSQEDPEVQFNWYVDGVEVHNAKTKPREEQFNSTYRVVSVLTVLHQDWLNGKEYKCKVSNKGLPSSIEKTISKAKGQPREPQVCTLPPSQEEMTKNQVSLSCAVKGFYPSDIAVEWESNGQPENNYKTTPPVLDSDGSFFLVSRLTVDKSRWQEGNVFSCSVMHEALHNRFTQKSLSLSLGGGGSGGGGSEVQLVESGGGFVQAGESLTLSCTSSTLTFTPYRMAWYRQAPGKQRDLVADISSGDGRTTNYADFAKGRFTISRDNIKNTVFLRMTNLKPEDTAVYYCNTFVSFVGIARSWGQGTQVTVSS
light: B4 light
notes: as for B4

“And” between values parts separate entries of the source, which are not always exact repeats. Identical values can stand only once.

One experiment deals with T1, human CD3 on Jurkat cells (human, UniProt P07766 23-207; P04234 22-171; P09693 23-182).
T1 construct: whole, on cells; CD3 complex as on Jurkat (Clone E6-1) cells; also called CD3 expressing cells (Jurkat)
The experiment can be described thus: FACS, Jurkat cells.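 Note: flow cytometric binding of bispecific antibodies to Jurkat T cells, threefold serial dilutions incubated half an hour in the cold, EC50 taken from the fitted binding curve.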 In general terms: A flow cytometer gives signals particle by particle.
Procedure: The binding of the bispecific antibodies was tested on the CA expressing human lung adenocarcinoma cell line (H1573) and the CD3 expressing immortalized T lymphocyte line (Jurkat). The steps are as follows: the cells were harvested, counted, and resuspended in FACS buffer (PBS containing 0.1% BSA) at 2×10⁶ cells/ml. 100 μl of cell suspension was incubated in a V-bottom 96-well plate at 4° C. with 3-fold serial dilutions of bispecific antibodies (20 μg/ml-0.009 μg/ml) for 30 minutes; washed twice with pre-cooled FACS buffer. […] GraphPadPrism was used to obtain the binding curve.
As for B1, the EC50 was 0.866 µg/mL and 6.66 nM.

Take B2: the EC50 is 2.08 µg/mL and 16 nM.

In the case of B3, the half-maximal effective concentration (EC50) is 4.59 µg/mL and 35.3 nM.

B4: the concentration giving a half-maximal response (EC50) was 5.53 µg/mL and 42.5 nM.

With B5, the EC50 was 12.1 µg/mL and 93 nM.

For the next experiment, the target named is T2, human CD3ε/δ (ACRO systems, CDD-H52W1) (human, UniProt P07766 23-126; P04234 22-105).
T2 construct: Bought protein; also called human CD3ϵ/CD3δ; human CD3 epsilon/delta antigen
The experiment can be described thus: BLI, antibody captured, antigen in solution.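 Note: bispecific antibodies captured on AHIC biosensors to a 1.5 nm loading signal, in PBST with 0.02% detergent.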 A general note: BLI is a label-free optical method that tracks binding on a fibre tip over time.
Procedure: The bispecific antibodies were diluted to 5 ag/ml, and 1.5 nm protein was coupled to the surface of the AHIC sensor chip through 0.02% PBST.
B1 gave a dissociation constant (Kd) of 2.01 nM, a koff of 0.000338 s⁻¹ and a kon of 168000 M⁻¹ s⁻¹.

On to B2, for which binding was put at a Kd of 2.83 nM, the koff was 0.000689 s⁻¹ and the on-rate (kon) came to 243000 M⁻¹ s⁻¹.

Molecule B3 returned a Kd of 3.01 nM and a koff of 0.000997 s⁻¹.

B4 registered a Kd of 1.79 nM, a koff of 0.00047 s⁻¹ and an association rate constant (kon) of 262000 M⁻¹ s⁻¹.

With B5, the Kd was determined as 1.67 nM, the koff was determined as 0.000485 s⁻¹ and the kon came out at 291000 M⁻¹ s⁻¹.

Broadly, the EC50 is the midpoint of the concentration-response curve. By Kd is commonly meant a measure of binding affinity in units of concentration. A lower Kd goes with a tighter complex. What is called koff is a measure of how fast the partners let go of each other. Higher therefore signals a short-lived complex. The kon is the second-order rate constant of association. Lower therefore signals slower complex formation.

Values taken from patent publication US20240400715A1 (VIBRANT PHARMA, published 2024).
